Data published in US20140087995A1 (published 2014).
Blank lines part the entries; values can stand above or below the binder they belong to. Numbered stars: 1 amine (or outer) side, 2 acyl side, 3 side chain; on linkers, the order of the positions; unused ones are H or OH. Bridge positions count the residues as written; N and C are the ends. Side chains are listed from the residue outwards. Ends that are not written are not given here. * marks the point of attachment. C20 diacid = O=C(O)CCCCCCCCCCCCCCCCCCC(=O)*; γGlu = O=C(O)[C@H](CCC(=O)[*:2])N[*:1]

Columns and labels:
rat calcitonin receptor [1] = biological target: T1, rat calcitonin receptor (rat, UniProt P32214 25-516); test: ratio of binding IC50s: rat calcitonin receptor (Assay VIII) over rat amylin receptor (Assay VI)
T1 construct: whole, on cells; In cell membranes prepared from transiently transfected BHK tk'ts 13 cells (Assay VIII); also called rCTR; rat calcitonin (a) receptor
T1 sequence (looked up): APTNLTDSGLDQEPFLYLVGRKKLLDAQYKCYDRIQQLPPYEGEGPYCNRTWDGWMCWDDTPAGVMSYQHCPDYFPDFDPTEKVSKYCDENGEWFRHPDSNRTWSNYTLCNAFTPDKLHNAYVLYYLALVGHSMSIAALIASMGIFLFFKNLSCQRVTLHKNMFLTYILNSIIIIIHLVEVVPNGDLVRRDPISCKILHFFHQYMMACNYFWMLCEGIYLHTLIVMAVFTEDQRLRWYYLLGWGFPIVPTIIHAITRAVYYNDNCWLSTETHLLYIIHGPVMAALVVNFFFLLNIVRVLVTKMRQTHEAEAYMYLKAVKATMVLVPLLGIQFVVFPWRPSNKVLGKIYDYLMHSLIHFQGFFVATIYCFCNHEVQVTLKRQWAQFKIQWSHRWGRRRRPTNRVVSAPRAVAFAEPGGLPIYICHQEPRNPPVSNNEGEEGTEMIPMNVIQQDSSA

[2] = biological target: T2, human calcitonin receptor (human, UniProt P30988 25-474); test: ratio of binding IC50s: human calcitonin receptor (Assay VII) over human amylin receptor (Assay V)
T2 construct: whole, on cells; Cell membranes from the stably transfected cell line (Assay VII); also called hCTR; hCT
T2 sequence (looked up): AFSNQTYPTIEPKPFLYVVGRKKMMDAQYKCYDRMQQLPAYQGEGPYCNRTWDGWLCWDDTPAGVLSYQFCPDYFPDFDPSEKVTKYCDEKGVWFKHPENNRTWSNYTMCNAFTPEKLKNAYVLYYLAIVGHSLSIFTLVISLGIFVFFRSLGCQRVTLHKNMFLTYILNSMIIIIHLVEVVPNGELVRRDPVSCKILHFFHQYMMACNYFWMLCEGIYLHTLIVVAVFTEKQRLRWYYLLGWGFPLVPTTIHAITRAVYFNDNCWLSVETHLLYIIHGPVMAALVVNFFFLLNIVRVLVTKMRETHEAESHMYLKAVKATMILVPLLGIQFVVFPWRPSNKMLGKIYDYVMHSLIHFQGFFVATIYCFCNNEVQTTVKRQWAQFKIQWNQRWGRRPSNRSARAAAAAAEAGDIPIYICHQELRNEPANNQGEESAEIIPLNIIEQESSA
Procedure: The resulting pellet was resuspended, homogenized and centrifuged (20.000 rpm, 15 min) in a buffer containing 20 mM Na-HEPES and 0.1 mM EDTA (pH 7.4, buffer 2). The resulting pellet was resuspended in buffer 2 and protein concentration was measured (BCA protein Assay, Pierce). The homogenate was kept cold during the whole procedure. The membranes were kept at −80° C. until use. The assay was performed in a 384 well Optiplate (PerkinElmer) in a total volume of 40 ul. Membranes were mixed with SPA beads. Final concentration of membranes 35 ng/μL final and SPA beads was 0.05 mg/well. Test-compounds were dissolved in DMSO and further diluted in assay buffer (50 mM Hepes, pH 7.4, 1 mM CaCl2, 5 mM MgCl₂, 0.1% OA and 0.02% Tween20). […] The final mixture was incubated with shaking at 400 rpm for 120 min at 25° C. prior to centrifugation (1500 rpm, 10 min). Samples were analyzed on TopCounter™ (Packard). The IC₅₀ was calculated using (one site binding competition analysis) GraphPad Prism5 as a measure of receptor affinity.
Membranes were prepared in the following way; the cells were rinsed with PBS and incubated with Versene for approximately 5 min before harvesting. The cells were flushed with PBS and the cell-suspension was centrifuged for 5 min at 1000 rpm. Cells were homogenized (Ultrathurrax) in a buffer containing 20 mM Na-HEPES and 10 mM EDTA (pH 7.4) and centrifuged at 20.000 rpm for 15 min. The resulting pellet was resuspended, homogenized and centrifuged (20.000 rpm, 15 min) in a buffer containing 20 mM Na-HEPES and 0.1 mM EDTA (pH 7.4, buffer 2). The resulting pellet was resuspended in buffer 2 and protein concentration was measured (BCA protein Assay, Pierce). The homogenate was kept cold during the whole procedure. The membranes were kept at −80° C. until use. Assay was performed in a 384 well Optiplate (PerkinElmer) in a total volume of 40 ul. Membranes were mixed with SPA beads.

rat calcitonin receptor [3] = biological target: T1, rat calcitonin receptor; test: SPA competition binding, displacement of 125I-Calcitonin from membranes of BHK tk'ts 13 cells with rat calcitonin receptor (Assay VIII)
[4] = biological target: T3, rat amylin receptor (rat calcitonin receptor + rat RAMP 3) (rat, UniProt P32214 25-516; Q9JJ73 23-147); test: SPA competition binding, displacement of 125I-rat amylin from membranes of BHK tk'ts 13 cells with rat calcitonin receptor + rat RAMP 3 (Assay VI)
T3 construct: whole, on cells; Receptor complex in cell membranes prepared from transiently transfected BHK tk'ts 13 cells (Assay VI); also called rAmylin-R; rat amylin 3(a) receptor
T3 sequence (looked up) 1: T1 sequence (looked up)
T3 sequence (looked up) 2: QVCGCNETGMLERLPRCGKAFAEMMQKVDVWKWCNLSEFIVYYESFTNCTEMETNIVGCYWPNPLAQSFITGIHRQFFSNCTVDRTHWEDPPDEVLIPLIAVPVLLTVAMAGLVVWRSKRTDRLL
Procedure: The binding assay was performed using scintillation proximity assay (SPA) beads (RPNQ0001) from PerkinElmer and cell membranes from the Amylin 3(a)/CRE-luc cells (as described in Assay (II)) were used. Membranes were prepared in the following way; the cells were rinsed with PBS and incubated with Versene for approximately 5 min before harvesting. The cells were flushed with PBS and the cell-suspension was centrifuged for 5 min at 1000 rpm. Cells were homogenized (ultrathurrax) in a buffer containing 20 mM Na-HEPES and 10 mM EDTA (pH 7.4) and centrifuged at 20.000 rpm for 15 min. The resulting pellet was resuspended, homogenized and centrifuged (20.000 rpm, 15 min) in a buffer containing 20 mM Na-HEPES and 0.1 mM EDTA (pH 7.4, buffer 2). The resulting pellet was resuspended in buffer 2 and protein concentration was measured (BCA protein Assay, Pierce). The homogenate was kept cold during the whole procedure. The membranes were kept at −80° C. until use. The assay was performed in a 384 well Optiplate (PerkinElmer) in a total volume of 40 ul. Membranes were mixed with SPA beads. Final concentration of membranes 35 ng/μL final and SPA beads was 0.05 mg/well. Test-compounds were dissolved in DMSO and further diluted in assay buffer (50 mM Hepes, pH 7.4, 1 mM CaCl2, 5 mM MgCl₂, 0.1% OA and 0.02% Tween20). […] The final mixture was incubated with shaking at 400 rpm for 120 min at 25° C. prior to centrifugation (1500 rpm, 10 min). Samples were analyzed on TopCounter™ (Packard). The IC₅₀ was calculated using (one site binding competition analysis) GraphPad Prism5 as a measure of receptor affinity.
Cells were grown in DMEM with 10% FBS and 1% Pen/Strep. Approximately 48 hours after transfection, the cells were harvested and membranes were prepared.

Ratio rCT/rAmylin binding (rat calcitonin receptor [1]): 22.7
Ratio hCT/hAmylin binding [2]: 26.4
IC50 (rat calcitonin receptor [3]): 26.3 nM
IC50 [4]: 1.16 nM
B1: N^ε1-[(4S)-4-carboxy-4-(19-carboxynonadecanoylamino)butanoyl]-[Glu14,Arg17,Pro21,Pro27,His35]-h-amylin (peptide)
peptide: K([γGlu-C20 diacid])CNTATCATQRLAEFLRHSSPNFGAIPSSTNVGSHTY-NH2
modifications: disulfide 2-7; N-terminus assumed
SMILES: CC[C@H](C)[C@H](NC(=O)[C@H](C)NC(=O)CNC(=O)[C@H](Cc1ccccc1)NC(=O)[C@H](CC(N)=O)NC(=O)[C@@H]1CCCN1C(=O)[C@H](CO)NC(=O)[C@H](CO)NC(=O)[C@H](Cc1c[nH]cn1)NC(=O)[C@H](CCCNC(=N)N)NC(=O)[C@H](CC(C)C)NC(=O)[C@H](Cc1ccccc1)NC(=O)[C@H](CCC(=O)O)NC(=O)[C@H](C)NC(=O)[C@H](CC(C)C)NC(=O)[C@H](CCCNC(=N)N)NC(=O)[C@H](CCC(N)=O)NC(=O)[C@@H](NC(=O)[C@H](C)NC(=O)[C@@H]1CSSC[C@H](NC(=O)[C@@H](N)CCCCNC(=O)CC[C@H](NC(=O)CCCCCCCCCCCCCCCCCCC(=O)O)C(=O)O)C(=O)N[C@@H](CC(N)=O)C(=O)N[C@@H]([C@@H](C)O)C(=O)N[C@@H](C)C(=O)N[C@@H]([C@@H](C)O)C(=O)N1)[C@@H](C)O)C(=O)N1CCC[C@H]1C(=O)N[C@@H](CO)C(=O)N[C@@H](CO)C(=O)N[C@H](C(=O)N[C@@H](CC(N)=O)C(=O)N[C@H](C(=O)NCC(=O)N[C@@H](CO)C(=O)N[C@@H](Cc1c[nH]cn1)C(=O)N[C@H](C(=O)N[C@@H](Cc1ccc(O)cc1)C(N)=O)[C@@H](C)O)C(C)C)[C@@H](C)O

Ratio rCT/rAmylin binding (rat calcitonin receptor [1]): 10.6
Ratio hCT/hAmylin binding [2]: 0.4
IC50 (rat calcitonin receptor [3]): 1.61 nM
IC50 [4]: 0.152 nM
B2: N^ε1-[(4S)-4-carboxy-4-[[(4S)-4-carboxy-4-(19-carboxynonadecanoylamino)butanoyl]amino]butanoyl]-[Glu14,Arg17,Pro21,Pro27,Pro34,Glu35,Pro37]-h-amylin (peptide)
peptide: K([γGlu-γGlu-C20 diacid])CNTATCATQRLAEFLRHSSPNFGAIPSSTNVGPETP-NH2
modifications: disulfide 2-7; N-terminus assumed
SMILES: CC[C@H](C)[C@H](NC(=O)[C@H](C)NC(=O)CNC(=O)[C@H](Cc1ccccc1)NC(=O)[C@H](CC(N)=O)NC(=O)[C@@H]1CCCN1C(=O)[C@H](CO)NC(=O)[C@H](CO)NC(=O)[C@H](Cc1c[nH]cn1)NC(=O)[C@H](CCCNC(=N)N)NC(=O)[C@H](CC(C)C)NC(=O)[C@H](Cc1ccccc1)NC(=O)[C@H](CCC(=O)O)NC(=O)[C@H](C)NC(=O)[C@H](CC(C)C)NC(=O)[C@H](CCCNC(=N)N)NC(=O)[C@H](CCC(N)=O)NC(=O)[C@@H](NC(=O)[C@H](C)NC(=O)[C@@H]1CSSC[C@H](NC(=O)[C@@H](N)CCCCNC(=O)CC[C@H](NC(=O)CC[C@H](NC(=O)CCCCCCCCCCCCCCCCCCC(=O)O)C(=O)O)C(=O)O)C(=O)N[C@@H](CC(N)=O)C(=O)N[C@@H]([C@@H](C)O)C(=O)N[C@@H](C)C(=O)N[C@@H]([C@@H](C)O)C(=O)N1)[C@@H](C)O)C(=O)N1CCC[C@H]1C(=O)N[C@@H](CO)C(=O)N[C@@H](CO)C(=O)N[C@H](C(=O)N[C@@H](CC(N)=O)C(=O)N[C@H](C(=O)NCC(=O)N1CCC[C@H]1C(=O)N[C@@H](CCC(=O)O)C(=O)N[C@H](C(=O)N1CCC[C@H]1C(N)=O)[C@@H](C)O)C(C)C)[C@@H](C)O

Ratio rCT/rAmylin binding (rat calcitonin receptor [1]): 73
Ratio hCT/hAmylin binding [2]: 27.3
IC50 (rat calcitonin receptor [3]): 21 nM
IC50 [4]: 0.288 nM
B3: N^ε1-[(4S)-4-carboxy-4-[[(4S)-4-carboxy-4-(19-carboxynonadecanoylamino)butanoyl]amino]butanoyl]-[Glu14,Arg17,Pro21,Pro27,Pro34,His35]-h-amylin (peptide)
peptide: K([γGlu-γGlu-C20 diacid])CNTATCATQRLAEFLRHSSPNFGAIPSSTNVGPHTY-NH2
modifications: disulfide 2-7; N-terminus assumed
SMILES: CC[C@H](C)[C@H](NC(=O)[C@H](C)NC(=O)CNC(=O)[C@H](Cc1ccccc1)NC(=O)[C@H](CC(N)=O)NC(=O)[C@@H]1CCCN1C(=O)[C@H](CO)NC(=O)[C@H](CO)NC(=O)[C@H](Cc1c[nH]cn1)NC(=O)[C@H](CCCNC(=N)N)NC(=O)[C@H](CC(C)C)NC(=O)[C@H](Cc1ccccc1)NC(=O)[C@H](CCC(=O)O)NC(=O)[C@H](C)NC(=O)[C@H](CC(C)C)NC(=O)[C@H](CCCNC(=N)N)NC(=O)[C@H](CCC(N)=O)NC(=O)[C@@H](NC(=O)[C@H](C)NC(=O)[C@@H]1CSSC[C@H](NC(=O)[C@@H](N)CCCCNC(=O)CC[C@H](NC(=O)CC[C@H](NC(=O)CCCCCCCCCCCCCCCCCCC(=O)O)C(=O)O)C(=O)O)C(=O)N[C@@H](CC(N)=O)C(=O)N[C@@H]([C@@H](C)O)C(=O)N[C@@H](C)C(=O)N[C@@H]([C@@H](C)O)C(=O)N1)[C@@H](C)O)C(=O)N1CCC[C@H]1C(=O)N[C@@H](CO)C(=O)N[C@@H](CO)C(=O)N[C@H](C(=O)N[C@@H](CC(N)=O)C(=O)N[C@H](C(=O)NCC(=O)N1CCC[C@H]1C(=O)N[C@@H](Cc1c[nH]cn1)C(=O)N[C@H](C(=O)N[C@@H](Cc1ccc(O)cc1)C(N)=O)[C@@H](C)O)C(C)C)[C@@H](C)O
